According to patent US20130195863A1, “Methods and Pharmaceutical Compositions for the Treatment of Bone Density Related Diseases” (priority 2010, published 2013):

Assays:
[1] = tested on: ROBO1 mRNA; test: Quantitative real-time PCR of ROBO1 transcript after ROBO1 silencing; type: cell-based, human; settings: clones Sh1.32 and Sh1.33 vs scrambled-transfected SC2.1 and SC2.4 cells
Source text: (§1) The small hairpins RNA (siRNA) against human Robo1 were designed with the Promega Si Designer tool. The oligos used were as follows: ShRNA-RB1 forward, 5′-ACCgCAgTACTAAgggAA-CAATAAgTTCTCTATTgTTCCCTTAgTACTgCTTTTTC-3′(SEQ ID NO:1); ShRNA-RB1 reverse, 5′-TgCAgAAAAAgCAg-TACTAAgggAACAATAgAgAACTTATTgTTCCCTT-AgTACTg-3′ (SEQ ID NO:2).
(§2) The shRNAs and corresponding scrambles duplex were synthesized with the psiSTRIKE puromycin kit (Promega) under U6 promoter. MDA-MB-231/B02-Frt11 cells were transfected with the siRNA and scrambles duplex with Transfast Transfection Reagent (Promega), according to the manufacturer's instructions. Selection of the clones was obtained after growing the cells for two weeks in the presence of puromycin (2 μg/ml).
(§3) RNA isolation, reverse transcriptase-polymerase chain reaction (RT-PCR), and quantitative real-time PCR (qPCR): RNA was extracted from cells using the Nucleospin RNA II kit (Macherey-Nagel) and cDNA produced from 2 μg total RNA using the MMLV polymerase Promega. qPCR was performed using SYBR Green qPCR Kit (Finnzymes). Probes were purchased from Invitrogen.

[2] = tested on: ROBO4 mRNA; test: ROBO4 mRNA expression after ROBO1 silencing; type: cell-based, human; settings: ROBO1 silencing in MDA-MB-231/B02 cells
Source text: as §1, §2, §3

[3] = tested on: ROBO1; test: Confocal microscopy of ROBO1 immunostaining; type: cell-based, human; settings: ShRNA-transfected vs scrambled-transfected cells
Experimental: Confocal microscopy: Subconfluent cell layers were fixed in 4% (w/v) formaldehyde for 30 min, washed three times with PBS and permeabilized for 5 min in PBS containing 0.2% (v/v) Triton-X-100. Permeabilized cells were then incubated with rabbit anti-Robo1 antibody ab7279 (17 μg/ml; AbCam) for 1 h, washed in PBS then incubated with a secondary, FITC-conjugated, anti-rabbit antibody (Sigma). Actin was labeled with phalloidin (Invitrogen) and nuclei were labeled with DAPI. Slides were viewed using confocal microscope Leica TCS-SP2.

[4] = tested on: MDA-MB-231/B02 human breast cancer cells; test: Cell invasion assay (Matrigel-coated inserts); type: cell-based; settings: Sh1.32 and Sh1.33 cells vs scrambled-transfected and parental cells
Experimental: Cell migration and invasion assays: Cell migration and invasion assays were performed in 24-well cell culture chambers with 8-μm diameter pore-size inserts (Becton Dickinson), as previously described (Zhang et al., Cancer Res., 67:5821-5830, 2007). Inserts were coated with 100-μl basement membrane Matrigel (3 μg/ml; Becton Dickinson) for 90 min at 37° C. in order to perform cell invasion experiments. Cancer cells (1.5×10^5 cells/ml) were re-suspended in DMEM culture medium containing 0.1% (w/v) bovine serum albumin and 300-μl of this cell suspension were loaded into each insert (upper chamber). The chemoattractant [10% (v/v) fetal calf serum] was placed in the lower chamber (750 μl/well). The plates were incubated for 6 h at 37° C. in a 5% CO2 incubator. After incubation, the inserts were collected carefully, the nonmigrating cells were removed and the migrating cells on the under surface of the inserts were fixed and stained with crystal violet. The membranes were mounted on glass slides and cells were counted under microscope.

[5] = tested on: MDA-MB-231/B02 human breast cancer cells; test: Scratch wound assay; type: cell-based; settings: Sh-transfected vs parental and scrambled-transfected cells; statistically significant
Experimental: Scratch wound assay: Cells were seeded at a concentration of 1×10^5 cells into 24-well plates and cultured for 24 hours at 37° C. in culture medium containing 10% (v/v) fetal calf serum. After incubation, the culture medium was removed and cells were further cultured in medium containing or not containing 5% (v/v) fetal calf serum, at which time a wound scratch was made on the cell monolayer by using a 20-μl micropipette tip. Cells were fixed, stained with crystal violet, and photographed 24 h later. Alternatively, cell migration was monitored by time-lapse videomicroscopy. Microscopic images were recorded, in a time lapse mode, with a CCD camera attached to a phase contrast microscope (Zeiss Axiovert 200M) and the behaviour of migrating cells was tracked over 24 hours using ImageJ software. Analysis of the images was performed using MetaMorph software.

[6] = tested on: breast cancer cells expressing ROBO1 (SC-transfected MDA-MB-231/B02); test: Effect of Slit2 on cell migration (96-microwell plates); type: cell-based, human; settings: conditioned medium from Slit2-expressing HEK cells; effect seen in SC-transfected cells as opposed to Sh-transfected (ROBO1-silenced) cells
Experimental: The effects of Slit2, […] (RANKL) and osteoprotegerin (OPG) on cell migration were studied using 96-microwell plates (Millipore). Experiments were carried out essentially as described above with minor modifications. Briefly, inserts were loaded with 75 μl of a cell suspension (2×10^5 cells/ml) and 150 μl of chemoattractant was placed in the lower chamber. The chemoattractant consisted of culture medium containing 0.5% (v/v) fetal calf serum with or without RANKL, OPG or the conditioned medium from Slit2-expressing HEK cells. Remaining of the experiments was as described above.

B1: ShRNA-RB1: small hairpin RNA against human Robo1, SEQ ID NO:1 forward and SEQ ID NO:2 reverse, under U6 promoter (nucleic acid)
sense: ACCGCAGTACTAAGGGAACAATAAGTTCTCTATTGTTCCCTTAGTACTGCTTTTTC
antisense: TGCAGAAAAAGCAGTACTAAGGGAACAATAGAGAACTTATTGTTCCCTTAGTACTG
modifications: target site or template, no part of the molecule
[1]
  ROBO1 transcript down regulation: 90%
[2]
  effect on ROBO4 mRNA expression levels: did not affect
[3]
  ROBO1 immunostaining at the plasma membrane: totally disappeared
[4]
  invasion: substantial gain in invasion
[5]
  wound closure: faster wound closure

B2: Slit2: natural ligand of ROBO1; tested as conditioned medium from HEK cells stably expressing human Slit-2 (protein)
chain: QCSCSGSTVDCHGLALRSVPRNIPRNTERLDLNGNNITRITKTDFAGLRHLRVLQLMENKISTIERGAFQDLKELERLRLNRNHLQLFPELLFLGTAKLYRLDLSENQIQAIPRKAFRGAVDIKNLQLDYNQISCIEDGAFRALRDLEVLTLNNNNITRLSVASFNHMPKLRTFRLHSNNLYCDCHLAWLSDWLRQRPRVGLYTQCMGPSHLRGHNVAEVQKREFVCSGHQSFMAPSCSVLHCPAACTCSNNIVDCRGKGLTEIPTNLPETITEIRLEQNTIKVIPPGAFSPYKKLRRIDLSNNQISELAPDAFQGLRSLNSLVLYGNKITELPKSLFEGLFSLQLLLLNANKINCLRVDAFQDLHNLNLLSLYDNKLQTIAKGTFSPLRAIQTMHLAQNPFICDCHLKWLADYLHTNPIETSGARCTSPRRLANKRIGQIKSKKFRCSAKEQYFIPGTEDYRSKLSGDCFADLACPEKCRCEGTTVDCSNQKLNKIPEHIPQYTAELRLNNNEFTVLEATGIFKKLPQLRKINFSNNKITDIEEGAFEGASGVNEILLTSNRLENVQHKMFKGLESLKTLMLRSNRITCVGNDSFIGLSSVRLLSLYDNQITTVAPGAFDTLHSLSTLNLLANPFNCNCYLAWLGEWLRKKRIVTGNPRCQKPYFLKEIPIQDVAIQDFTCDDGNDDNSCSPLSRCPTECTCLDTVVRCSNKGLKVLPKGIPRDVTELYLDGNQFTLVPKELSNYKHLTLIDLSNNRISTLSNQSFSNMTQLLTLILSYNRLRCIPPRTFDGLKSLRLLSLHGNDISVVPEGAFNDLSALSHLAIGANPLYCDCNMQWLSDWVKSEYKEPGIARCAGPGEMADKLLLTTPSKKFTCQGPVDVNILAKCNPCLSNPCKNDGTCNSDPVDFYRCTCPYGFKGQDCDVPIHACISNPCKHGGTCHLKEGEEDGFWCICADGFEGENCEVNVDDCEDNDCENNSTCVDGINNYTCLCPPEYTGELCEEKLDFCAQDLNPCQHDSKCILTPKGFKCDCTPGYVGEHCDIDFDDCQDNKCKNGAHCTDAVNGYTCICPEGYSGLFCEFSPPMVLPRTSPCDNFDCQNGAQCIVRINEPICQCLPGYQGEKCEKLVSVNFINKESYLQIPSAKVRPQTNITLQIATDEDSGILLYKGDKDHIAVELYRGRVRASYDTGSHPASAIYSVETINDGNFHIVELLALDQSLSLSVDGGNPKIITNLSKQSTLNFDSPLYVGGMPGKSNVASLRQAPGQNGTSFHGCIRNLYINSELQDFQKVPMQTGILPGCEPCHKKVCAHGTCQPSSQAGFTCECQEGWMGPLCDQRTNDPCLGNKCVHGTCLPINAFSYSCKCLEGHGGVLCDEEEDLFNPCQAIKCKHGKCRLSGLGQPYCECSSGYTGDSCDREISCRGERIRDYYQKQQGYAACQTTKKVSRLECRGGCAGGQCCGPLRSKRRKYSFECTDGSSFVDEVEKVVKCGCTRCVS
[6]
  migration of SC-transfected cells induced by FCS: inhibited the migration
